Experimental data as given in US20100021987.

GST fusion of the catalytic domain of the Xanthomonas campestris pathovar vesicatoria protease XopD (GST-XopD)
activity level (grade) (6xHis-hSUMO-1-eGFP): -
activity level (grade) (6xHis-AtSUMO2-eGFP): +/-
activity level (grade) (6xHis-ySmt3-eGFP): +/-
activity level (grade) (6xHis-T-SUMO-eGFP): +/-
activity level (grade) (6xHis-hSUMO-3-eGFP): -
activity level (grade) (6xHis-AtSUMO1-eGFP): -
